System: HEK293 cells
Test: In vitro killing/toxicity (CCK-8) on normal HEK293 cells
Format: cell-based
Conditions: 32-1000 ng/mL, 96 hours
Source text: 4 types of cells were selected to measure in vitro anti-tumor activity of the rTRAIL mutant and the MMAE conjugate: TRAIL sensitive type (NCI-H460), TRAIL insensitive type (Hela), TRAIL resistant type (MCF-7) and normal cells (HEK293). All of these 4 types of cells had TRAIL death receptor on their surfaces.
Hereinafter, TRAIL sensitive type NCI-H460 cell was taken as an example to give detailed description of the test procedure, including the following steps:
(1) Digesting the NCI-H460 cells into individual cells, followed by diluting to 1×10^4 cells/mL, spreading the cells on 96-well plate (100 μL for each well), and culturing the cells for 24 hours under normal condition.
(2) Diluting N109C, N109C-vcMMAE and S96C-vcMMAE with culture medium respectively, and adding them into the cell plate with final concentrations of 32, 63, 125, 250, 500, 1000 ng/mL for serving as the test groups, while using standard TRAIL (114-281) as the positive control group, using the buffer (used for dissolving the test sample, diluted with the culture medium in a same manner) as the negative control group, and using the culture medium (without adding any solution) as the blank control group. All the control groups and test groups were tested in triplicate. […]

TRAIL (114-281): standard TRAIL (114-281) used as the positive control group
toxicity to normal cells: considerably low toxicity

Source: patent US9617326B2, “RTRAIL mutant and monomethyl auristatin E conjugate thereof” (Zhejiang University, priority 2012, dated 2017)
